Tested on: MS2 coat protein
Assay: apparent KD of MS2 coat protein; designed switch direction (-1 OFF switch, 1 ON switch): -1; higher = weaker reporter binding
In short: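 Three titration conditions were used: no input, 200 uM small-molecule ligand, and an oligonucleotide input. In each, SNAP-549-labelled MS2 coat protein was raised from 0.7 or 1.5 nM, doubling, to 3 µM over designed RNA switches transcribed on Illumina chips by stalled E. coli RNA polymerase. Curve fits of normalised cluster fluorescence gave values whose per-design median over clusters is the apparent KD.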

[1] = input ligand: microRNA oligo, concentration not stated
[2] = Eterna round: R95, input ligand: FMN 200 uM
[3] = Eterna round: R95, input ligand: microRNA oligo, concentration not stated
[4] = Eterna round: R95, input ligand: none

Sequence: AGUACUCUCACGAAAGUGAGAGUACAAAAAGCAAGUGAAACAUGAGGAUCACCCAUGUCCUCAUUUGCUCGUCUUAU [Mat - Sensor v2 -ver2- JL mod - D88] (Eterna round: R96, puzzle: Sensor v2, turn-off variant 2)
- apparent KD of MS2 coat protein (input ligand: FMN 200 uM): 11.8 nM
- apparent KD of MS2 coat protein [1]: 413 nM
- apparent KD of MS2 coat protein (input ligand: none): 14.4 nM

Sequence: GCAGCUAAGUGUAAUAACACAAUACAUGAGGAUCACCCAUGUGAGGAUAUGGACUGGAUUACAGUCCAGAAGGCACAAUGCUGC [Zipper Style 4] (Eterna round: R96, puzzle: Exclusion NG 3)
- apparent KD of MS2 coat protein (input ligand: FMN 200 uM): 17.2 nM
- apparent KD of MS2 coat protein [1]: 16.2 nM
- apparent KD of MS2 coat protein (input ligand: none): 20.9 nM

Sequence: UUAAAUCAUGUAGGAUAUGCGUGGCGAAGCUAUGCAGAAGGACAUGAGGAUCACCCAUGUUCUAGCGUCUGCGUACAGAUGCGG [JL JSci mod] (Eterna round: R96, puzzle: Exclusion NG 1)
- apparent KD of MS2 coat protein (input ligand: FMN 200 uM): 334 nM
- apparent KD of MS2 coat protein [1]: 22 nM
- apparent KD of MS2 coat protein (input ligand: none): 29.8 nM

Sequence: AGUUGUUGUUUCCGUUCUUACAUGAGGAUCACCCAUGUUUCUUGUCGUGCUCGCGUUGCUCGUCUGACUACCUGUUG [salish99_TOv1_r3_067] (puzzle: Sensor v3, turn-off variant 1)
- apparent KD of MS2 coat protein [2]: 52.5 nM
- apparent KD of MS2 coat protein [3]: 40.3 nM
- apparent KD of MS2 coat protein [4]: 68.1 nM

Sequence: CAUGAGGUAGGAUAUACGAUAAUAUAGGGUAGAUAUAUAACACAUGAGGAUCACCCAUGUAGAAGGACCAGUAG [Mat - Exclusion 2 - Mod of my Tesla design - D67] (puzzle: Exclusion 2)
- apparent KD of MS2 coat protein [3]: 29.8 nM

Sequence: AUUAUAUAGAUAGGAUAUAGAAUAUUAUUUUAACAUGAGGAUCACCCAUGUAACCUUAUGUGUAGCUAGAAGGAUCAUUUAUUA [Title] (Eterna round: R96, puzzle: Exclusion NG 2)
- apparent KD of MS2 coat protein [1]: 69.5 nM

Sequence: CAUGGCUACUAGGAUAUGUCGCGAUGGACGCAAACAGAAGGAGUAACAUGAGGAUCACCCAUGUUGUGACCUAA [Mabiaris] (Eterna round: R97, puzzle: Exclusion 6)
- apparent KD of MS2 coat protein (input ligand: FMN 200 uM): 200 nM
- apparent KD of MS2 coat protein (input ligand: none): 28.9 nM

Sequence: AAAACAAGCAUAAGAUCCCACAUGAGGAUCACCCAUGUGCUCGUCUUAUAAAAGGUUUCGACGAAAACGUCGAGACC [Eli 91 v30] (Eterna round: R97, puzzle: Sensor, turn-off variant 1)
- apparent KD of MS2 coat protein (input ligand: FMN 200 uM): 29.6 nM
- apparent KD of MS2 coat protein (input ligand: none): 29.6 nM

Sequence: UUUGCAAGCUUAUGAUCCCACAUGAGGAUCACCCAUGUUGCUGCCGGUGACGGUAGCAUAACAUAUGCUCGUCUUAU [JL TOV1 3.63] (Eterna round: R97, puzzle: Sensor, turn-off variant 1)
- apparent KD of MS2 coat protein (input ligand: FMN 200 uM): 791 nM
- apparent KD of MS2 coat protein (input ligand: none): 1170 nM

Sequence: AAGCGCGUAGGAUAUACAUGAGGAUCACCCAUGUGAGGAGGGAGUUGGAGGUGUGGAAGUAGAAGGACGGAGUG [JR_Exclu3_Sub079] (puzzle: Exclusion 3)
- apparent KD of MS2 coat protein [3]: 26.9 nM

Sequence: GUAGAGUGAGGAUAUACGAGAUCGAAAGAUCGGCGAUCCAAACAUGAGGAUCACCCAUGUAGAAGGCACUCUAC [Eli x2 4.006] (Eterna round: R97, puzzle: Exclusion 2)
- apparent KD of MS2 coat protein (input ligand: FMN 200 uM): 202 nM
- apparent KD of MS2 coat protein (input ligand: none): 140 nM

Sequence: CUGAGGUAGCGGUCCUAUGACAUGAGGAUCACCCAUGUGCCUCGCUACAAGCUUUUUGCUCGUUUUAUGAUUCUCGG [JL Atriat mod 11] (puzzle: Sensor v3, turn-off variant 1)
- apparent KD of MS2 coat protein [2]: 71.2 nM
- apparent KD of MS2 coat protein [3]: 90.1 nM
- apparent KD of MS2 coat protein [4]: 95.3 nM

Sequence: GCUAGAGCAGGAUAUUUAGAUCCUCACAUGAGGAUCACCCAUGUGGCCGAAAGGCUAAGGAGAGAAGGGCUCUAGC [Omei Ex5 E23] (Eterna round: R97, puzzle: Exclusion 5)
- apparent KD of MS2 coat protein (input ligand: FMN 200 uM): 1580 nM
- apparent KD of MS2 coat protein (input ligand: none): 933 nM

Sequence: CAGGUGUUAGGAUAUCGGAGAUCGAGACCGACGGGAUGAGCCGAGAAGGAACAUGAGGAUCACCCAUGUAGGUG [JR_Exclu4_Sub034] (puzzle: Exclusion 4)
- apparent KD of MS2 coat protein [2]: 166 nM
- apparent KD of MS2 coat protein [3]: 400 nM
- apparent KD of MS2 coat protein [4]: 414 nM

Sequence: AGUAACAGAGGAUAUACUAUUUUAUGUGUUUGUUGUUUUGAACAUGAGGAUCACCCAUGUAGAAGGCUGAAUAA [JMF 96] (puzzle: Exclusion 2)
- apparent KD of MS2 coat protein [3]: 24.1 nM

Sequence: UCCUCGUCAGGAUAUGUCUCGACGCGGUCCGCGUGCGGUCAACAGAAGGGACAUGAGGAUCACCCAUGUGCAGA [Eternabot (Original) Solution 38] (Eterna round: R97, puzzle: Exclusion 4)
- apparent KD of MS2 coat protein (input ligand: FMN 200 uM): 228 nM
- apparent KD of MS2 coat protein (input ligand: none): 204 nM

Sequence: AGAGUGCUGCGAGGAUAUACAUGAGGAUCACCCAUGUAAUCGUCUGAGGCAAAGCCUCAGACGAAGUAGAAGGCGCAGUACUCA [Mat - Exclusion NG 2 - Mod of JL - D27] (Eterna round: R96, puzzle: Exclusion NG 2)
- apparent KD of MS2 coat protein (input ligand: FMN 200 uM): 20 nM
- apparent KD of MS2 coat protein [1]: 12.5 nM
- apparent KD of MS2 coat protein (input ligand: none): 17.9 nM

Sequence: ACAUGAUGCUUAGGAUAUGUUCUUACGCCAUGAAUAGAAGGGAGCGGACAGAAGUGACCUGACAUGAGGAUCACCCAUGUCUAA [Isusus] (Eterna round: R96, puzzle: Exclusion NG 1)
- apparent KD of MS2 coat protein (input ligand: FMN 200 uM): 84.4 nM
- apparent KD of MS2 coat protein [1]: 48 nM
- apparent KD of MS2 coat protein (input ligand: none): 80.3 nM

Sequence: CCCACGCACCAAGGAUAUGUUCCGCACAUGAGGAUCACCCAUGUGGCCAGCGAUUCUGUGUGAGAACAGAAGGUGGUUAUGUUA [Eternabot solution 41] (Eterna round: R96, puzzle: Exclusion NG 2)
- apparent KD of MS2 coat protein (input ligand: FMN 200 uM): 468 nM
- apparent KD of MS2 coat protein [1]: 315 nM
- apparent KD of MS2 coat protein (input ligand: none): 219 nM

Sequence: AACCUGAGGCAAAGCUUUAGGUGUACAUGAGGAUCACCCAUGUAGGAUAUGGUAGGCAAAGCUUACCAGAAGGACAUAAUGAUG [Mat - Exclusion NG 3 - Mod of JL - D47] (Eterna round: R96, puzzle: Exclusion NG 3)
- apparent KD of MS2 coat protein (input ligand: FMN 200 uM): 100 nM
- apparent KD of MS2 coat protein [1]: 45.1 nM
- apparent KD of MS2 coat protein (input ligand: none): 83.7 nM

Sequence: GAUGAGAGAGGAUAUACAUGAGGAUCACCCAUGUAAUUUUCGGACAUGGAAGCUGGAUGUAGAAGGCUCGCAUG [Leritete] (puzzle: Exclusion 3)
- apparent KD of MS2 coat protein [3]: 19.6 nM

Sequence: GGAUCUACUGAGGAUAUUACAUCACCCGAUUGAUAAGAAGGCAGAACAUGAGGAUCACCCAUGUGGGUAGCCAA [Polaris] (Eterna round: R97, puzzle: Exclusion 6)
- apparent KD of MS2 coat protein (input ligand: FMN 200 uM): 36.9 nM
- apparent KD of MS2 coat protein (input ligand: none): 21 nM

Sequence: CGAUAAUCCAAGGAUAUGCUAGACGAAAGUCUAGCAGAAGGUGGAACAUGAGGAUCACCCAUGUGUCCAAAUCG [Mat - Exclusion 6 - Eli Mod - D27] (Eterna round: R97, puzzle: Exclusion 6)
- apparent KD of MS2 coat protein (input ligand: FMN 200 uM): 22.2 nM
- apparent KD of MS2 coat protein (input ligand: none): 14.7 nM

Sequence: CUUUUGUGAGGAUAUUAGUAGUUUAUAAUUAAAAUUAUUACUGAGAAGGCACAUGAGGAUCACCCAUGUACCAC [JR_Ex4_Sub030] (Eterna round: R97, puzzle: Exclusion 4)
- apparent KD of MS2 coat protein (input ligand: FMN 200 uM): 92.8 nM
- apparent KD of MS2 coat protein (input ligand: none): 21.8 nM

Sequence: AACCUACAUGAGGAUCACCCAUGUGAGGAUAUAUUGUUAUUUAUAUUAUUUUUUAGAGGUAGAAGGCGCGUGAU [JR_Exc1_Sub020] (Eterna round: R97, puzzle: Exclusion 1)
- apparent KD of MS2 coat protein (input ligand: FMN 200 uM): 15.9 nM
- apparent KD of MS2 coat protein (input ligand: none): 17.3 nM

Sequence: AGUGUGUGGCAGGAUAUGCAAUUAAUAGGUGAAGCAGAAGGGUCUACAUGAGGAUCACCCAUGUAUGCGGUUGA [Ex6 #23] (Eterna round: R97, puzzle: Exclusion 6)
- apparent KD of MS2 coat protein (input ligand: FMN 200 uM): 297 nM
- apparent KD of MS2 coat protein (input ligand: none): 68.5 nM

Sequence: AGAGAGUCAGGAUAUGACGAAGAGAACAUGAGGAUCACCCAUGUUGCUUCGUUUUUAUCGUCAGAAGGGACGAACU [JR_Ex5_Sub088] (Eterna round: R97, puzzle: Exclusion 5)
- apparent KD of MS2 coat protein (input ligand: FMN 200 uM): 13.8 nM
- apparent KD of MS2 coat protein (input ligand: none): 13.9 nM

Sequence: ACAUGAGGAUCACCCAUGUACAGGGUUUAGUUUCAUCGUUUGAAGGAUAUACUCCGUUAGUUGUUGUAGAAGGUCACAUUUUGG [JR_ExcNG3_Sub005] (Eterna round: R96, puzzle: Exclusion NG 3)
- apparent KD of MS2 coat protein (input ligand: FMN 200 uM): 167 nM
- apparent KD of MS2 coat protein [1]: 89.2 nM
- apparent KD of MS2 coat protein (input ligand: none): 142 nM

Sequence: GCAGCAACUCUAAUCAAAUCAACAUGAGGAUCACCCAUGUCUCAGGAUAUGGUCUGGAUUACAGGCCAGAAGGGAGAAAGCUGC [Eli exng3 - 048] (Eterna round: R96, puzzle: Exclusion NG 3)
- apparent KD of MS2 coat protein (input ligand: FMN 200 uM): 16.5 nM
- apparent KD of MS2 coat protein [1]: 13.9 nM
- apparent KD of MS2 coat protein (input ligand: none): 16.6 nM

Sequence: AAAGAGCUAGGAUAUCGCGACCUUGACAUGAGGAUCACCCAUGUGCCCUCGUAACAACGACGAGAAGGAGCGAAAA [Gelaladied] (puzzle: Exclusion 5)
- apparent KD of MS2 coat protein [2]: 36.2 nM
- apparent KD of MS2 coat protein [3]: 16.8 nM
- apparent KD of MS2 coat protein [4]: 19.9 nM

Sequence: ACCUUACUGGUCAGGAUAUACAGUCUUUGGUGUGUGUAGAAGGGACAUGAGGAUCACCCAUGUAGGUUGCUUUA [alecazam62] (Eterna round: R97, puzzle: Brourd's mod of Exclusion 4)
- apparent KD of MS2 coat protein (input ligand: FMN 200 uM): 220 nM
- apparent KD of MS2 coat protein (input ligand: none): 141 nM

Sequence: UUUAUGUCAGGAUAUGAUUAGAUCUACUUCGGUAGAUCUAAUCAGAAGGGACAUGAGGAUCACCCAUGUAGUUU [Ex4 - 3 - 13] (Eterna round: R96, puzzle: Exclusion 4)
- apparent KD of MS2 coat protein (input ligand: FMN 200 uM): 671 nM
- apparent KD of MS2 coat protein [1]: 137 nM
- apparent KD of MS2 coat protein (input ligand: none): 180 nM

Sequence: UUGGUUGUGGUAGGAUAUCCGUUGGAAACCUUCGGAGAAGGACCACAGUCACUGGGUCUUUGUCUGGUGGACGGUUUCGACCGU [pwkr exNG1 F6.23] (Eterna round: R96, puzzle: Exclusion NG 1)
- apparent KD of MS2 coat protein (input ligand: FMN 200 uM): 202 nM
- apparent KD of MS2 coat protein [1]: 281 nM
- apparent KD of MS2 coat protein (input ligand: none): 559 nM

Sequence: UUUUUUGGGCAAGGAUAUCCUGUGCGGUUCCGGCUCGUGUCUGUCACAUGAGGAUCACCCAUGUGGGAGAAGGUGCCUGCGGUU [Design 84] (Eterna round: R96, puzzle: Exclusion NG 2)
- apparent KD of MS2 coat protein (input ligand: FMN 200 uM): 15.1 nM
- apparent KD of MS2 coat protein [1]: 10.8 nM
- apparent KD of MS2 coat protein (input ligand: none): 15.4 nM
